Measured values: patent publication US20230226096A1 (Orna Therapeutics, Inc., priority 2020, published 2023)

B1: Icavirus (nucleic acid)
DNA: CGAAGTTTAAGCTAAGCACCCTCGGGCGTTCCCGGATTATGTGATCACATCAATTTGATGGCTGGTCACCACGCAACGCCTGGAGAGATACTCTTACTTTTCTCTTAAGATCCCCGGTCATTTGACGCTTGTAGGATGATAGGGTTATTTTCCACTATAAATACTTTCATACTCTTGGATGTTCTATATCCAAGACGGGAGGACCTACCCCGTACCCCTTAGAGGTGAGATGCCAAGAACAGGCCCTTTCTGTTCTCTCGACAATGGCATCATAGGCAACAAGCATCACACCAAGATTGCTAAGTTTTGTTAAGAGTTCTTCAAGCTATAGGGTGGCTGTAGCGACCTTCTGATGCCTGCGGATTTCCCCACGGAGCGATCCGTGCCACAGGGGCCAAAAGCCACGGCTAACGCCCATCAGGAGCGGCACTTACCCCGTGCCCCACCCTTGAAACTTGAATGTTCACACTGGCTTCTCTCGGCTTTCTGAACTGTCTGCTTGTTGGGGCCCCGAAGGATGCCCTGGAGGTACCCCATTTTATGGGATCTGACCAGGGGACACCTCAGCTCTCTAAGTTGCTGGTGTTTAAAAAACGTCTAAGGGCCCCCACCCCTTAGGTGGAGGGATCCACCTTTCCTTTATTTTTTAAAACTCTTTTATGGTCACAATTGTTT
B2: Antarctic penguin virus A (nucleic acid)
DNA: CTAGGAGACTACGCAGTGGGATAAGATGACTATGATGTCGTACGGGCAGAAGCCAGTACAGTCGAAGTCGAGACCGACGTCGAGGATTTGACTCTGCCTGACCTAGTGCCATC
modifications: chemistry not fully specified; the letters are possibly those of the target site
B3: Avisivirus Pf-CHK1 (nucleic acid, listed as Avisivirus sp.)
DNA: CATTCCCCTTTCCCCAGCCATGGGTTAAATGGCCCCTCACCAGGTTCGGTGCTGTCTAGGCTTCCAGTAAAGAAGTCAACCGAGCATTGAACAAAACCTCAGTGGGTATGGTAGTTAACCCCGTCCACTGGACAACTTTGTCCTCTTAAAAGTGGATCAATCCACCCCAACTCCCCCCCTAGCCACCTGAGCCATGGTGGATAGCAGTGACGAAACTAGGGACCCCAATACCTCTAGTGCCAAGAGAATTCCCCCCTCGCGAGAGGTGCTCTTGGGCCCGAAAGGCTAGTTGGCAGGGTGAAGTGAAGGAAGCTGCTAGCGTGGCAACCTTAAGCGTAGCCCGAAGCTGACCTTAGAGGTTAACCCTAGTGGACCACTGGATGAAGCTGTGGAGGTGGTGGATAGGAAAGTTGGCCACTTGTGAGTAGATGCCCAGAAGGCATAAGGCTGATCTGGGGCCAGTGACTATACCGTTCCGGTAAACCTGGTATAAAAACCATGAAAGCAAGTGGGTTTAAAATTTCTTCTAATTCCTTCATTTCAGTAGTGATAACTGGCAGA
B4: Hepacivirus J (nucleic acid)
DNA: GCCGCTCCCGAAAGGGAGTCCGGCGCGTCATCCCACTCCGAGGAGTGGGGTGGCGTCCCCGTGTGCCGGGGAACCATGAAGCCTAAGGGCATCCACATTTTAGAATGAACTTGAAGCTTCGTTTCGCTGGCCGGAAAGTCCTGGGTTCCCATGGCCAGGGTTCCGCAGGTGGGTAAATCCCGGTGGGGTTCCATCCAGGATATACGGCAGGCGGGCGTAGTCCGGCGGTTCGGACGACGTGTGGGTCGCCTACGGTGGATTGTTCACAGGATGGGCACTCCGGTGTGAATAGGCCCCGTCAGGGTGCGCTGACGTTAAACTCAGGCCTTGCCTGGTGTTCGGGGAGGATTGCAGGGCCACGCCGCCTCTAAGGGCCGTATGGCACAGTACTTCTTCGGGCGGGTTGTCAAGGCCCTCCAACGCGACACCAGTGCCTCGGCAGGCATGGGGCCACCCAGCTCGGCGTCCCGCACACAGACGGCGTAGGGGAAAATCAGCAATGTGACCCCGGGTGGCATTTTCCTTCTCTCTACTTCCATGCATGATCAACCGCAATC
modifications: Hepacivirus J

System: HEK293 cells
Format: cell-based, human
Settings: luminescence from secreted Gluc in supernatant 24 hours after transfection of HEK293 cells; circular RNA encoding Gluc with the named IRES (UTR truncated to 675 nt)

In order of rising Expression:
1. B4  7.65E+04
2. B2  8.42E+04
3. B3  1.19E+05
4. B1  4.41E+06
